How the values were obtained:
[1] = target: recombination human PD-1 extracellular protein (Sino Biological Inc.) (human) (UniProt Q15116); test: competitive ELISA, plate coated with human PD-1 protein; competitor biotin-hAb21
[2] = target: T1, human PD-1 on cells (CHO cells stably expressing human PD-1) (human, UniProt Q15116 25-288); test: flow cytometry on CHO/PD-1 cells
T1 construct: whole, on cells; also called CHO/PD-1; CHO-PD-1
T1 sequence (Q15116 25-288): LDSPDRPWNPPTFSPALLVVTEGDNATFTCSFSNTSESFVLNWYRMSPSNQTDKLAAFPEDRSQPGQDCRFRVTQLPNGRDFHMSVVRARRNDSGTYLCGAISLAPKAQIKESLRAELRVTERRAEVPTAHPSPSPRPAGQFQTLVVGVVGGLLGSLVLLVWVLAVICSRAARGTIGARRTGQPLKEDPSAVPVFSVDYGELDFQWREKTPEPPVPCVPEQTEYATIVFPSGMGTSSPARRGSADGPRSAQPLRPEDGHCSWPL

recombination human PD-1 extracellular protein (Sino Biological Inc.) (human), sequence (Q15116 25-170): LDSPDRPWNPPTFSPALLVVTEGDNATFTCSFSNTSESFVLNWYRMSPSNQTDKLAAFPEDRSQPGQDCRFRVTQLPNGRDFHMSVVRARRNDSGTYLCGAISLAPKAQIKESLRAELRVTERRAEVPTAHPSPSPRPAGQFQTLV

antagonizing/inhibiting ratio [1] [%] | binding result [2] | Molecule
70 | – | MK3475+Nivo (Nivolumab and MK3475 added together)
– | binds | human PDL2-Fc fusion protein (Fc fusion, UniProt Q9BQ51 20-219, looked up, not shown: a dimerising Fc or GST, also called biotin-PDL2-Fc; Biotin-PDL2Fc) LFTVTVPKELYIIEHGSNVTLECNFDTGSHVNLGAITASLQKVENDTSPHRERATLLEEQLPLGKASFHIPQVQVRDEGQYQCIIIYGVAWDYKYLTLKVKASYRKINTHILKVPETDEVELTCQATGYPLAEVSWPNVSVPANTSHSRTPEGLYQVTSVLRLKPPPGRNFSCVFWNTHVRELTLASIDLQSQMEPRTHP

— patent US20200277376A1 (SUZHOU STAINWEI BIOTECH, published 2020)
